Assay results as given in the nanobody polyreactivity screen of Harvey et al. (2022).

Assay: yeast display, Sf9 membrane polyspecificity reagent, FACS + sequencing; frameworks hold sequencing errors
Procedure, shortened: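 After 36–48 hours of galactose induction, yeast (Saccharomyces cerevisiae BJ5465) displaying a synthetic nanobody library were stained at 4 °C for 1 hour with 10% biotinylated, detergent-solubilized Sf9 membrane reagent. Streptavidin microbeads enriched the stained cells before FACS sorting into low and high (top ~1%) gates on anti-HA and streptavidin fluorescence. Each clone's polyreactivity label reflects its gate of origin.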

Row | Sequence | polyreactivity (PSR sort gate)
1 | QVQLVESGGGLVQAGGSLRLSCAASGSTFTHYAMGWYRQAPGKERELVAAITSSGGSTYYADSVKGRFTISRDNAKNTVYLQMNSLKPEDTAVYYCAARGSYRNRYRHDYWGQGTQVTVSS | high polyreactivity
2 | QVQLVESGGGLVQAGGSLRLSCAASGSTFTINAMGWYRQAPGKERELVAAISRSGVRTFYADSVKGRFTNSRDNAKNTVYLQRNSLKPEDTAVYYCAKQTYRVTTDEGDYWGQGTQVTVSS | high polyreactivity
3 | QVQLVESGGGLVQAGGSLRLSCAASGSTFTINVMGWYRQAPGKERELVAAINGGGRTNYADSVKGRFTSSRDNAKNTVYLQMNSLKPEDTAVYYCAADGLSNVRQMDYWGQGTQVTVSS | low polyreactivity
4 | QVQLVESGGGLVQAGGSLRLSCAASGSTFTINVMGWYRQAPGKERELVAAINGGGRTNYADYVKGRFTISRDNAKNTVYLQMNSLKPEDTAVYYCAADCYTYWFYQLIPDYDYWGQGTQVTVSS | low polyreactivity
5 | QVQLVESGGGLVQAGGSLRLSCAASGSTFTINVMGWYRQSPGKERELVAAINGGGRTNYADSVKGRFTISRDNAKNTVYLQMNSLKPEDTAVYYCAADGLSNVRQMDYWGQGTQVTVSS | low polyreactivity
6 | QVQLVESGGGLVQAGGSLRLSCAASGSTFTINVMGWYSQAPGKEREVVAAINGGGRTNYADSVKGRFTISRDHAKNTVNLQMNSLKPEDTAVYYCAADGLSNVRQMDYWGQGTQVTVSS | low polyreactivity
7 | QVQLVESGGGLVQAGGSLRLSCAASGSTFTIYAMGWYRPAPGKERELVAAIDWSGGGTDYADSVKGRFTISRDNAKNTVYLQMNSLKPEDTAVYYCAAETFYDYGGYDYWGQGTQVTVSS | low polyreactivity
8 | QVQLVESGGGLVQAGGSLRLSCAASGSTFTKNVMGWYRQAPGKERELVAAISSGGRTNYADSVKGRFTISRDNAKNTVYLQMNSLKPEDTAVYYCAADVGYFKSDYWGQGTQVTVSS | low polyreactivity
9 | QVQLVESGGGLVQAGGSLRLSCAASGSTFTKYAMGWYRKAPGKERELVAAITYSGGRTYYADSVKGRFTISRDNAKNTVYLQMNSLKPEDTAVYYCAAATYAGKPMEYWGQGTQVTVSS | high polyreactivity
10 | QVQLVESGGGLVQAGGSLRLSCAASGSTFTLYAMGWYRQAPGQERELVAAIRRGGSTNYADSVKGRFTISRDNAKNPVYLQMNSLKPEDTAVYYSAADTYTSRSRYSGSGGYDYWGQGTQVTVSS | low polyreactivity
11 | QVQLVESGGGLVQAGGSLRLSCAASGSTFTPNDMGWYRQAPGKERELVAAINSGGGRTYYADSVKGRFTISRDNAKNTVYLQMNSLKPEDTAVYYCAKRLYISGYGYGYWGQGTQVTVSS | high polyreactivity
12 | QVQLVESGGGLVQAGGSLRLSCAASGSTFTPYAMGWHRQAPGKERELVAAITIRGGSTYYADSVKGRFTISRDNAKNTVYLQMYSLKPEDTAVYYCAREYIFSVYDYSTSYYYWGQGTQVTVSS | low polyreactivity
13 | QVQLVESGGGLVQAGGSLRLSCAASGSTFTQYAMGWYRQAPGKERELVAAINSRGDSTYYADSVKGRFTISRDNAKNTVYLQMNSLKPEDTAVYYCAATGYLSYYQQDLWLEYYYWGQGTQVTVSS | low polyreactivity
14 | QVQLVESGGGLVQAGGSLRLSCAASGSTFTQYAMGWYRQAPGKERELVATISRRGTRTYYADSVKGRFTISRDNAKNTVYLQMNSLKPEDTAVYYCAADNGPYRTIGYDSWGQGTQVTVSS | high polyreactivity
15 | QVQLVESGGGLVQAGGSLRLSCAASGSTFTQYVMGWYRQAPGKERELVAAISDSGSTYYADSVKGRFTISRDNAKNTVYLQMNSLKPEDTAVYYCNADDVEFYYGYGYLDYDYWGQGTQVTVSS | low polyreactivity
16 | QVQLVESGGGLVQAGGSLRLSCAASGSTFTRNAMGWYRQAPGKERELVARISRSGGSTYYADSVKGRFTISRDNAKNSVYLQMNSLKPEDTAVYDCNKDWYPRYPYVKGERDYWGEGTQVTVSS | high polyreactivity
17 | QVQLVESGGGLVQAGGSLRLSCAASGSTFTRNAMGWYRQAPGKERELVATISSGGSTNYADSVKGRFTISRDNAKNTVYLQMNSLKPEDTAVYYCAKRSLYRYYYWGQGTQVTVSS | high polyreactivity
18 | QVQLVESGGGLVQAGGSLRLSCAASGSTFTRYAMGWYRPAPGKERELVAAISLSGGDTYYADSVKGRFTISRDNAKNTVYLQMNSLKPEDTAVYYCAARWGYRGYSYEYWGQGTQVTVSS | high polyreactivity
19 | QVQLVESGGGLVQAGGSLRLSCAASGSTFTRYAMGWYRQAPGKERELVAAISRGGSTNYADSVKGRFTISRDNAKNTVYLQMNSLKPEDTAVYYCAKGSNRSRGYYWGQGTQVTVSS | high polyreactivity
20 | QVQLVESGGGLVQAGGSLRLSCAASGSTFTRYAMGWYRQAPGKERELVAAISSSAGRTYYADSVKGRFTISRDNAKNTVYLQMNSLKPEDTAVYYCAATRVYAGAQYDYWGQGTQVTVSS | high polyreactivity

Row | Sequence | polyreactivity (PSR sort gate)
21 | QVQLVESGGGLVQAGGSLRLSCAASGSTFTRYAMGWYRQAPGKERELVAGITGRGGSTYYADSVKGRFTISRDNAKNTVYLQMNSLKPEDTAVYYCNKRRRGVTTYDYWGQGTQVTVSS | high polyreactivity
22 | QVQLVESGGGLVQAGGSLRLSCAASGSTFTRYAMGWYRQAPGKERELVASISRSGNTYYADSVKGRFTISRDNAKNTVYLQMNSLKPEDTAVNYCAAKRKSYYSYNFDYWGQGTQVTVSS | high polyreactivity
23 | QVQLVESGGGLVQAGGSLRLSCAASGSTFTSYAMGWYRQAPGKEREFVAAISQSSGSTYYADSVKWSFTISRDNAKNTVYLQMNSLKPEDTAVYYCAAKGRIRYGYGFDYWGQGTQVTVSS | high polyreactivity
24 | QVQLVESGGGLVQAGGSLRLSCAASGSTFTSYAMGWYRQAPGKERELVAAISKSGGSTNYADSVKGRFTISRDNAKNTVYLQMNSLKPEDTAVYYCAALGIGSYRRYSGYDYWGQGTQVTVSS | low polyreactivity
25 | QVQLVESGGGLVQAGGSLRLSCAASGSTFTSYAMGWYRQAPGKERELVAAISKSGGSTYYADSVKGRFTISRDNAKNTVYLQMNSLKPEDTAVYYCAKYIAYYGYVPSPWDHPGDDYWGQGTQVTVSS | low polyreactivity
26 | QVQLVESGGGLVQAGGSLRLSCAASGSTFTSYAMGWYRQAPGKERELVAAISRSGGRTYYADSVKGRFTISRDNAKYTVYLQMNSLKPEDTAVYYCNAASLSKSDYWGQGTQVTVSS | high polyreactivity
27 | QVQLVESGGGLVQAGGSLRLSCAASGSTFTTNAMGWYRQAPGKERELVATISRGGSTYYADSVKGRFTISRDNAKNTVYIQMNRLKPEDTAVYYCATDVQVPGIGRSVYAYEYWGQVTQVTVSS | low polyreactivity
28 | QVQLVESGGGLVQAGGSLRLSCAASGSTFTTYVMGWYRQAPGKERELVAAISRRGGRTYYADSVKGRFTISRDNAKNTVYLQMNSLKPEDTAVYYCNKVYPTYYYYRGGPTEYDYWGQGTQVTVSS | high polyreactivity
29 | QVQLVESGGGLVQAGGSLRLSCAASGSTFTVNAMGWYRQAPGKERELVAAINWSGGSTYYADSVKGRFTISRDNAKNTVYLQMNSLKPEDTAVYYCNKDREPYGYWSFDYWGQGTQVTVSS | low polyreactivity
30 | QVQLVESGGGLVQAGGSLRLSCAASGSTFTVNDMGWYRQAPGKERELVAAITQRDGRTFYADSVKGRFTISRDNAKNTVYLQINSLKPEDTGVYYCAADYGWYTYGDYDYWGQGTQVTVSS | low polyreactivity
31 | QVQLVESGGGLVQAGGSLRLSCAASGSTFTVNGMGWYRQAPGKERELVASITWSGGSTYYADSVKGRFTISRDNAKISVYLHMTSLIPEDTAVYYCAADEKLYITGYDYWGQGTQVTVSS | low polyreactivity
32 | QVQLVESGGGLVQAGGSLRLSCAASGSTFTVYAMGWYRQAPGKERELVAAITNGGRTYYADSVKGRFTISRDNAKNTVYLQMNSLKPEDTAVYYCAADVYYDDYLYDYWGQGTQVTVSS | high polyreactivity
33 | QVQLVESGGGLVQAGGSLRLSCAASGSTFTVYDMGWYRQAPGKERELVAGISRRGSSTYYADSVKGRFTISRDNAKNTVYLQMNSLKPEDTAVYYCAARGAVIRYPDKRYPVRYDYWGQGTQVTVSS | high polyreactivity
34 | QVQLVESGGGLVQAGGSLRLSCAASGSTFTWNAMGWYRQAPGKERELVASITWGGGGTYYADSVKGRFTISRDNAKNTVYLQMNSLKPEDTAVYYCAAGLWSPAYRGGYYYWGQGTQVTVSS | low polyreactivity
35 | QVQLVESGGGLVQAGGSLRLSCAASGSTFTWYAMGWYRQAPGKERELVADISYGGRSTYYADSVKGRFTISRDNAKNTVYLQMNSLKPEDTAVYYCAAESIPYYRYDYWGQGTQVTVSS | low polyreactivity
36 | QVQLVESGGGLVQAGGSLRLSCAASGSTFTYNAMGWYRQAPGKERELVAAISSDGRTYYADSVKGRFTISRDNAKNTVYLQMNSLKPEDTAVYYCAAYFSGLTYGYYVAGYDYWGQGTQVTVSS | low polyreactivity
37 | QVQLVESGGGLVQAGGSLRLSCAASGSTFTYNAMGWYRQAPGKERELVAAITGRGGSTYADSVKGRFTISRDNAKNTVYLQMNSLKPEDTAVYYCAARRPYGYRWHTSVPSLDYWGQGTQVTVSS | low polyreactivity
38 | QVQLVESGGGLVQAGGSLRLSCAASGSTFTYNAMGWYRQAPGKERELVASISSGTTTYYADSVKGRFTISRDNAKNTVYLQMNSLKPDDTAVYYCNADIYTWFQIGGYQYDYWGQGTQVTVSS | low polyreactivity
39 | QVQLVESGGGLVQAGGSLRLSCAASGSTFTYNAMGWYRQAPGKERELVASISSGTTTYYADSVKGRFTISRDNAKNTVYLQMNSLKPEDTAVYYCAALVSPDRGYYSYWYIYDYWGQGTQVTVSS | low polyreactivity
40 | QVQLVESGGGLVQAGGSLRLSCAASGSTFTYNDMGWYRPAPGKERELVATIDSTTRTYYADSVKGRFTISRDNAKNSVYLQMNCLKPEDTAVYYCAADLTWAYFYYLFYRYDYWGQGTKVTVSS | low polyreactivity
